Assays:
Experiment in all cases: double-antibody sandwich ELISA, R001 as capture and HRP-R001 as detection, mixture of HPV types
[1] = target: T1, HPV45 VLP (Human papillomavirus type 45, UniProt P36741 27-539)
T1 construct: also called HPV45完整VLP蛋白
T1 sequence: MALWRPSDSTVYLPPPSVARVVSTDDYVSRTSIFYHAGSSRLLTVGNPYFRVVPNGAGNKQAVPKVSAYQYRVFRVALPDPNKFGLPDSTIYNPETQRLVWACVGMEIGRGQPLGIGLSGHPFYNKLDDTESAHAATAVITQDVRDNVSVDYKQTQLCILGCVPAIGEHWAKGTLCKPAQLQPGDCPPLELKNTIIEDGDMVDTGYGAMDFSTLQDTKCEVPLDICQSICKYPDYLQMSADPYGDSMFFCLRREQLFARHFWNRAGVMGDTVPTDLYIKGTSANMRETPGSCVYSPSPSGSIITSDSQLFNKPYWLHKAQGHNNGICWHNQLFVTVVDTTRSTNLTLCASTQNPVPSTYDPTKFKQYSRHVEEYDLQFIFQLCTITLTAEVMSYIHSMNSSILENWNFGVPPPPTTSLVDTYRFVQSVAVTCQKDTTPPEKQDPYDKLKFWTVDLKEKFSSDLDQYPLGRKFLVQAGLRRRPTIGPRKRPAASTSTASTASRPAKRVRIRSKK

[2] = target: T2, HPV51 VLP (Human papillomavirus type 51, UniProt P26536 1-504)
T2 construct: also called HPV51完整VLP蛋白
T2 sequence: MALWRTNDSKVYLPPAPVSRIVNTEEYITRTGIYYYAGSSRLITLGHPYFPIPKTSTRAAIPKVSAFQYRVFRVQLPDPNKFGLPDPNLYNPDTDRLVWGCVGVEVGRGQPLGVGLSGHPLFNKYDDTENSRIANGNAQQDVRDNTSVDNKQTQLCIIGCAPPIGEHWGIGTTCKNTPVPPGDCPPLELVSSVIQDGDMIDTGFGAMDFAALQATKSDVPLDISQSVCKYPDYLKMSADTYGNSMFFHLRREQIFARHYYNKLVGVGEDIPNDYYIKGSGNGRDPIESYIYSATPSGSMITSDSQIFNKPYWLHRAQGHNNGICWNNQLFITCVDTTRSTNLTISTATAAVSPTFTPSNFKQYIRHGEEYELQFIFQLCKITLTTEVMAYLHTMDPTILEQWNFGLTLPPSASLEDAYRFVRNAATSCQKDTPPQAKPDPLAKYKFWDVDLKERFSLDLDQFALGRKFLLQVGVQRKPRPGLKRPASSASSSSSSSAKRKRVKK

[3] = target: T3, HPV18 VLP (Human papillomavirus type 18, UniProt P06794 62-568)
T3 construct: also called HPV18完整VLP蛋白
T3 sequence: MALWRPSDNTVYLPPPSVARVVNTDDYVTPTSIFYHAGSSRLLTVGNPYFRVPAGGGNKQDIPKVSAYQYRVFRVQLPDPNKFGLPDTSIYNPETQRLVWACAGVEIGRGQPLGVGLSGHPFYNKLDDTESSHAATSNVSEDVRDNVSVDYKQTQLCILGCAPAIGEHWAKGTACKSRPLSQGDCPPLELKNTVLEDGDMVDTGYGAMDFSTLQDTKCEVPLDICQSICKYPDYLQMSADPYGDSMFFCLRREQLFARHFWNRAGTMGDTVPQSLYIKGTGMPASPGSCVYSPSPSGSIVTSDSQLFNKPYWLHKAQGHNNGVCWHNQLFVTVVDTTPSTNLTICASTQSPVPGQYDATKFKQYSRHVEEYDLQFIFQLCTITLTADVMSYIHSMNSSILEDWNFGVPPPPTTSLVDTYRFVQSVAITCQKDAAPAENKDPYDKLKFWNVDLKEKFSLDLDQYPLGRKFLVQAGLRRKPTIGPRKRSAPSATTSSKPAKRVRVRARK

B1: HPV 16 R001 (antibody, V domains shown)
VH: QSVKESEGRLVTPGTPLTLTCTASGFTMSRYHMTWVRQAPGKGLEWIGIIYARNSDTYYANWAKGRFTISKTSTTVDLKITSPTIEDTATYFCARVDSDSSGAFDRLDLWGQGTLVTVSS
VL: DPMLTQTAASVEVAVGGTVTIKCQASQSIGGYLSWYQQKPGQRPKLLIYRASTLASGVPSRFKGSGSGTEYTLTFSGVECADAAAYYCQQGYTSSDINNAFGGGTEVVVK
notes: An HRP-labelled form served as detection antibody in the sandwich ELISA; also called HPV16.001; 单克隆抗体HPV 16 R001
binding result [1]: no binding (tested: 50ng/mL，25ng/mL，12.5ng/mL)
binding result [2]: no binding (tested: 50ng/mL，25ng/mL，12.5ng/mL)
binding result [3]: no binding (tested: 50ng/mL，25ng/mL，12.5ng/mL)

Reference: patent CN112125972A (SINOCELLTECH LTD, dated 2020)
